Source: patent publication US20200277377A1 (WUXI BIOLOGICS SHANGHAI, published 2020)
Where a chain is given by its changes, count along the chain named.

T1: hCTLA4_ECD.His point mutant T82 to alanine (human, UniProt P16410 36-161)
T1 construct: extracellular domain; alanine-scan mutein, HEK293F supernatant
T1 sequence (looked up): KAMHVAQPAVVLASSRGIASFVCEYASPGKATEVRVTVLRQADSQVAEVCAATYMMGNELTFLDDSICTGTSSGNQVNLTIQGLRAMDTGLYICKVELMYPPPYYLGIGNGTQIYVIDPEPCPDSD

T2: hCTLA4_ECD.His point mutant K130 to alanine (human, UniProt P16410 36-161)
T2 construct: extracellular domain; alanine-scan mutein, HEK293F supernatant
T2 sequence (looked up): T1 sequence (looked up) with A47T, K95A

T3: hCTLA4_ECD.His point mutant G64 to alanine (human, UniProt P16410 36-161)
T3 construct: extracellular domain; alanine-scan mutein, HEK293F supernatant
T3 sequence (looked up): T1 sequence (looked up) with G29A, A47T

B1: W3162-1.146.19-z12-uAb.IgG1K (antibody, V domains shown)
VH: QVQLQESGPGLVKPSETLSLTCSVTYHTITSGYDWTWIRKPPGKGMEWIGYISYSGNTNYNPSLKSRVTISRDTSKNQFFLKLSSVTAADTAVYYCASMMVPHYYVMDAWGQGTLVTVSS
VL: DIVMTQTPLSLSVTPGQPASISCRSSQSLLNSDGNTYLYWYLQKPGQSPQLLIYLVSKLGSGVPNRFSGSGSGTDFTLKISRVEAEDVGVYYCVQGTHDPWTFGGGTKVEIK
notes: Humanized; label says IgG1K
B2: W3162_1.154.8-z35-uAb.IgG1K (antibody, V domains shown)
VH: QVQLVQSGAEVKKPGSSVKVSCKASGYTFTNYFMNWVRQAPGQGLEWMGRVDPEQGRADYAEKFKKRVTITADKSTSTAYMELSSLRSEDTAVYYCARRAMDNYGFAYWGQGTLVTVSS
VL: EIVLTQSPDFQSVTPKEKVTITCSANSALSYMYWYQQKPDQSPKLWVHGTSNLASGVPSRFSGSGSGTDFTLTINSLEAEDAATYYCHHWSNTQWTFGGGTKVEIK
notes: Humanized; label says IgG1K

Columns and labels:
[1] = target: T1, hCTLA4_ECD.His point mutant T82 to …; assay: capture ELISA, alanine scan, vs silent alanine substitutions
Procedure, shortened: (§1)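 Secreted His-tagged CTLA4 point muteins in quantified supernatant were captured and probed with HRP anti-His antibody and TMB. Absorbance normalised to the mean of control mutants; epitope residues were assigned with a binding fold-change cutoff of <0.55.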

[2] = target: T2, hCTLA4_ECD.His point mutant K130 to …; assay: as above
Procedure, shortened: as §1

[3] = target: T3, hCTLA4_ECD.His point mutant G64 to …; assay: as above
Procedure, shortened: as §1

Murine CTLA-4.ECD-6×His = target: T4, Murine CTLA-4.ECD-6×His (mouse, UniProt P09793 36-161); assay: ELISA, antibody titrated on coated mouse CTLA-4.ECD-6xHis, OD450 [C) Murine CTLA-4]
T4 construct: extracellular domain; Bought; also called mouse CTLA-4.ECD-6×His; mouse CTLA-4 ECD
Description: ELISA was used to test binding of anti-human CTLA-4 antibodies to human, murine and cynomolgus monkey CTLA-4 protein. A 96-well plate was coated with human CTLA-4.ECD-6×His (1.0 μg/mL), cynomoguls monkey CTLA-4.ECD-6×His (0.5 μg/mL) or mouse CTLA-4.ECD-6×His (0.5 μg/mL) at 4° C. for 16-20 hours. After 1 hour blocking with 2% BSA in DBPS, testing antibodies, as well as positive and negative control antibodies were added to the plates and incubated at room temperature for 1 hour. The binding of the antibodies to the plates were detected by HRP-conjugated goat anti-human IgG antibody (1:5000 dilution) with 1 hour incubation. The color was developed by dispensing 100 μL of TMB substrate for 8 mins, and then stopped by 100 μL of 2N HCl.

| Binder | Fold change [1] [fold] | Fold change [2] [fold] | Fold change [3] [fold] | binding result (Murine CTLA-4.ECD-6×His) |
| --- | --- | --- | --- | --- |
| B1 | 0.436 | 0.348 |  |  |
| B2 |  |  | 0.543 | no binding (tested: about 7 nM) |
